Experimental data reported in the supplement of paper PMC5998384.

Tests used:
HeLa Kyoto [1] = experiment: thermal stability score vs G1/S (z-score of summed log2 fold changes over temperatures); higher = more thermally stable than in G1/S
HeLa Kyoto [2] = experiment: solubility change mitosis vs G1/S (difference of NP-40 vs SDS log2 ratios) (log2 ratio difference); higher = more soluble in mitosis
HeLa Kyoto [3] = experiment: solubility in G1/S (NP-40 vs SDS abundance) (log2 ratio); higher = more soluble; settings: cell cycle stage: G1/S
HeLa Kyoto [4] = experiment: melting temperature (median over replicates), in situ; higher = more thermally stable
[5] = cell cycle stage: early G1 (4.5 h after nocodazole release)
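For melting temperature (median over replicates), in situ in this document: HeLa Kyoto cells synchronized by double thymidine or nocodazole block, proteins quantified by TMT10plex mass spectrometry, three independent biological replicates.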
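For solubility change mitosis vs G1/S (difference of NP-40 vs SDS log2 ratios) in this document: synchronized HeLa Kyoto cells (double thymidine block for G1/S, nocodazole release for mitosis), protein amounts in NP-40 versus SDS lysates quantified by mass spectrometry, three biological replicates.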
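For solubility in G1/S (NP-40 vs SDS abundance) in this document: HeLa Kyoto cells arrested at G1/S by double thymidine block, proteins quantified by TMT10plex mass spectrometry in mild NP-40 versus SDS extracts, three biological replicates.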
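For thermal stability score vs G1/S (z-score of summed log2 fold changes over temperatures) in this document: synchronized HeLa Kyoto cells, proteins quantified by TMT10plex mass spectrometry, three biological replicates, mitosis taken 0.5 h after nocodazole release, G1/S directly after double thymidine block.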

Chain of HSPA5 (chain, as listed by the source): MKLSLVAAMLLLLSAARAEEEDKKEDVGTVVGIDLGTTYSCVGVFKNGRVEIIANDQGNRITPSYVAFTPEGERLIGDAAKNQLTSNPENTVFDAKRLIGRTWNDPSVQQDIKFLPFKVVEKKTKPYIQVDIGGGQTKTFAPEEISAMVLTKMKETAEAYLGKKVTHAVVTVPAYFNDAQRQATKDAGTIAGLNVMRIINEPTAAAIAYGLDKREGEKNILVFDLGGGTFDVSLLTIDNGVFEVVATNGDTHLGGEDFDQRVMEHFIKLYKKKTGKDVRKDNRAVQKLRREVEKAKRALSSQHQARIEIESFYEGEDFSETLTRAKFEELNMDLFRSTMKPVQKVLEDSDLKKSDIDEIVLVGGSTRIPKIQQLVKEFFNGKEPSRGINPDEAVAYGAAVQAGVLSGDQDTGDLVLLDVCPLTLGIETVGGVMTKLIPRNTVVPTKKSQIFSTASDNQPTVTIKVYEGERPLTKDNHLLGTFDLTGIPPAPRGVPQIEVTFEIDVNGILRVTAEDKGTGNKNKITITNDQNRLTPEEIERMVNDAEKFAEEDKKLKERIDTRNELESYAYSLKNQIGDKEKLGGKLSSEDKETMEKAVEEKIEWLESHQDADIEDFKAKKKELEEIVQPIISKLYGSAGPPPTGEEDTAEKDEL
Chain of KCTD3 (chain, as listed by the source): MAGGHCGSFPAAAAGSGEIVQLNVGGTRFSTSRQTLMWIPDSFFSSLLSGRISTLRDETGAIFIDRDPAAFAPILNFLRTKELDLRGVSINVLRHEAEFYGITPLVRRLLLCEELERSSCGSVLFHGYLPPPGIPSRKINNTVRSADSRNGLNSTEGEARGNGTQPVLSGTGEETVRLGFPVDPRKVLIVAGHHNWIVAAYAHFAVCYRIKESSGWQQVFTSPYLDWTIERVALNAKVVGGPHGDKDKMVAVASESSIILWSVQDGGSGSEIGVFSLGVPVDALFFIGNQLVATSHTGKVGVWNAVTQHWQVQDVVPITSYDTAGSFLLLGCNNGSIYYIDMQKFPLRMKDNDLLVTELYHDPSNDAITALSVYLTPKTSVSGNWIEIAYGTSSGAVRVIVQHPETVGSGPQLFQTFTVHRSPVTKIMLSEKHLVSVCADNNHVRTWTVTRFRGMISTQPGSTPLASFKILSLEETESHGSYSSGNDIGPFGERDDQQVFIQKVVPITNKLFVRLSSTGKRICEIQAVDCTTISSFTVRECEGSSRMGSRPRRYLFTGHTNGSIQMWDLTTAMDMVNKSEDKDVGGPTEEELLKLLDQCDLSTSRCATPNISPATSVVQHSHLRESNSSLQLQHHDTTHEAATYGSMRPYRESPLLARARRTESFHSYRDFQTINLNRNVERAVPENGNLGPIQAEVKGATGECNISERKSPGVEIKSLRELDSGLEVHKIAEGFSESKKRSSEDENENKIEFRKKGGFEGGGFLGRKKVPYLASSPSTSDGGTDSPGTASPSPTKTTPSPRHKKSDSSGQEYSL
Chain of HNRNPU (chain, as listed by the source): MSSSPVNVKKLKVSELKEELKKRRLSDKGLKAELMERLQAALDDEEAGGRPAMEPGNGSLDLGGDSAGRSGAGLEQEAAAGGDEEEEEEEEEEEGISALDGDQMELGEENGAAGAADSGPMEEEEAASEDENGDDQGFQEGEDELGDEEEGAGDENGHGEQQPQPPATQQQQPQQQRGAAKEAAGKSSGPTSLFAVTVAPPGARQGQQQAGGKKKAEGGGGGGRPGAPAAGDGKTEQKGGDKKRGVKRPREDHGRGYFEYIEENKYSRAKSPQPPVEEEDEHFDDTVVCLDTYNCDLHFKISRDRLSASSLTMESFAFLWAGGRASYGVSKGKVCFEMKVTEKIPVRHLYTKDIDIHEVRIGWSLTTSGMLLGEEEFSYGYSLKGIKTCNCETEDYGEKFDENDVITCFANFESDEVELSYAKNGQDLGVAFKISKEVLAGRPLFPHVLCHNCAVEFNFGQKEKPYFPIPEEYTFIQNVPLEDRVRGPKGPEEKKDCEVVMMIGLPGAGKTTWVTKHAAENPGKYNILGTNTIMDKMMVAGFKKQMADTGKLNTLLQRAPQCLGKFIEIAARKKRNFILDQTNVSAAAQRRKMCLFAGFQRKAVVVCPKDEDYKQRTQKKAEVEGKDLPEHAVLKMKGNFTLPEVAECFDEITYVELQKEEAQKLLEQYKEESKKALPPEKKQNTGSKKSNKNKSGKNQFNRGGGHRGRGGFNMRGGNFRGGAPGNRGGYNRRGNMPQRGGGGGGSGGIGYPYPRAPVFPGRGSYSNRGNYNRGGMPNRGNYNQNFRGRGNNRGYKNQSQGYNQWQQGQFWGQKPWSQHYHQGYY

Row | Substance | thermal stability score (HeLa Kyoto [1]; [5]) | thermal stability score (HeLa Kyoto [1]; cell cycle stage: mitosis) | solubility change mitosis (log2) (HeLa Kyoto [2]) | solubility in G1/S (log2) (HeLa Kyoto [3]) | melting temperature (HeLa Kyoto [4]; cell cycle stage: G1/S) [°C] | melting temperature (HeLa Kyoto [4]; cell cycle stage: mitosis) [°C]
1 | HINT3 | -1.15 | -1.14 | -0.161 | 0.186 | 55.1 | 54.7
2 | HNRNPU | 7.74 | 17.8 | 0.232 | -0.381 | 47.1 | 49.5
3 | HSP90AB1 | 0.311 | 0.779 | -0.125 | -0.0892 | 51.3 | 51.1
4 | HSPA5 | 3.25 | 3.15 | 0.0735 | 0.316 | 55.5 | 56.9
5 | HUWE1 | 0.946 | 0.312 | -0.136 | -0.226 | 52 | 51.4
6 | KCTD3 | -2.92 | -4.02 | 0.0231 | -0.0736 | 57.6 | 56.7
7 | KIAA1429 | 0.289 | 0.336 | 0.17 | -0.435 | 47.9 | 50.4
8 | KPNA1 | 1.89 | 3.16 | -0.102 | 0.00375 | 49 | 49.7
9 | KPNA6 | 1.85 | 4.59 | -0.0516 | 0.0416 | 47.6 | 48.8
10 | LAMA1 | 5.02 | 10 | 0.051 | -0.219 | 51.7 | 52.9
11 | LAMB2 | 2.43 | 3.75 | -0.116 | 0.034 | 53 | 53.9
12 | LRP6 | -4.02 | -2.07 | 0.112 | 0.027 | 52.7 | 53.1
13 | LTN1 | 0.696 | 1.04 | -0.0806 | -0.347 | 50.1 | 48.8
14 | MAAAAAAAVAGVGRGGGGAEPRQERSRARGWAGVERSEGRRMEPGEELEEEGSPGGREDGFTAEHLAAEAMAADMDPWLVFDARTTPATELDAWLAKYPPSQVTRYGDPGSPNSEPVGWIAVYGQGYSPNSGDVQGLQAAWEALQTSGRPITPGTLRQLAITHHVLSGKWLMHLAPGFKLDHAWAGIARAVVEGQLQVAKVSPRAKEGGRQVICVYTDDFTDRLGVLEADSAIRAAGIKCLLTYKPDVYTYLGIYRANRWHLCPTLYESRFQLGGSARGSRVLDRANNVELT [C11ORF68] | 0.634 | -0.663 | -0.0653 | 0.585 | 51.6 | 51.9
15 | MAAAAASHLNLDALREVLECPICMESFTEEQLRPKLLHCGHTICRQCLEKLLASSINGVRCPFCSKITRITSLTQLTDNLTVLKIIDTAGLSEAVGLLMCRSCGRRLPRQFCRSCGLVLCEPCREADHQPPGHCTLPVKEAAEERRRDFGEKLTRLRELMGELQRRKAALEGVSKDLQARYKAVLQEYGHEERRVQDELARSRKFFTGSLAEVEKSNSQVVEEQSYLLNIAEVQAVSRCDYFLAKIKQADVALLEETADEEEPELTASLPRELTLQDVELLKVGHVGPLQIGQAVKKPRTVNVEDSWAMEATASAASTSVTFREMDMSPEEVVASPRASPAKQRGPEAASNIQQCLFLKKMGAKGSTPGMFNLPVSLYVTSQGEVLVADRGNYRIQVFTRKGFLKEIRRSPSGIDSFVLSFLGADLPNLTPLSVAMNCQGLIGVTDSYDNSLKVYTLDGHCVACHRSQLSKPWGITALPSGQFVVTDVEGGKLWCFTVDRGSGVVKYSCLCSAVRPKFVTCDAEGTVYFTQGLGLNLENRQNEHHLEGGFSIGSVGPDGQLGRQISHFFSENEDFRCIAGMCVDARGDLIVADSSRKEILHFPKGGGYSVLIREGLTCPVGIALTPKGQLLVLDCWDHCIKIYSYHLRRYSTP [TRIM32] | 0.931 | 0.623 | 0.0329 | -0.286 | 51.8 | 52.2
16 | MAAAAAVEAAAPMGALWGLVHDFVVGQQEGPADQVAADVKSGNYTVLQVVEALGSSLENPEPRTRARAIQLLSQVLLHCHTLLLEKEVVHLILFYENRLKDHHLVIPSVLQGLKALSLCVALPPGLAVSVLKAIFQEVHVQSLPQVDRHTVYNIITNFMRTREEELKSLGADFTFGFIQVMDGEKDPRNLLVAFRIVHDLISRDYSLGPFVEELFEVTSCYFPIDFTPPPNDPHGIQREDLILSLRAVLASTPRFAEFLLPLLIEKVDSEVLSAKLDSLQTLNACCAVYGQKELKDFLPSLWASIRREVFQTASERVEAEGLAALHSLTACLSRSVLRADAEDLLDSFLSNILQDCRHHLCEPDMKLVWPSAKLLQAAAGASARACDSVTSNVLPLLLEQFHKHSQSSQRRTILEMLLGFLKLQQKWSYEDKDQRPLNGFKDQLCSLVFMALTDPSTQLQLVGIRTLTVLGAQPDLLSYEDLELAVGHLYRLSFLKEDSQSCRVAALEASGTLAALYPVAFSSHLVPKLAEELRVGESNLTNGDEPTQCSRHLCCLQALSAVSTHPSIVKETLPLLLQHLWQVNRGNMVAQSSDVIAVCQSLRQMAEKCQQDPESCWYFHQTAIPCLLALAVQASMPEKEPSVLRKVLLEDEVLAAMVSVIGTATTHLSPELAAQSVTHIVPLFLDGNVSFLPENSFPSRFQPFQDGSSGQRRLIALLMAFVCSLPRNVEIPQLNQLMRELLELSCCHSCPFSSTAAAKCFAGLLNKHPAGQQLDEFLQLAVDKVEAGLGSGPCRSQAFTLLLWVTKALVLRYHPLSSCLTARLMGLLSDPELGPAAADGFSLLMSDCTDVLTRAGHAEVRIMFRQRFFTDNVPALVQGFHAAPQDVKPNYLKGLSHVLNRLPKPVLLPELPTLLSLLLEALSCPDCVVQLSTLSCLQPLLLEAPQVMSLHVDTLVTKFLNLSSSPSMAVRIAALQCMHALTRLPTPVLLPYKPQVIRALAKPLDDKKRLVRKEAVSARGEWFLLGSPGS [MMS19] | -0.678 | 0.247 | -0.141 | -0.14 | 50.3 | 49.8
17 | MAAAAELSLLEKSLGLSKGNKYSAQGERQIPVLQTNNGPSLTGLTTIAAHLVKQANKEYLLGSTAEEKAIVQQWLEYRVTQVDGHSSKNDIHTLLKDLNSYLEDKVYLTGYNFTLADILLYYGLHRFIVDLTVQEKEKYLNVSRWFCHIQHYPGIRQHLSSVVFIKNRLYTNSH [EEF1E1] | -0.612 | -0.172 | 0.0967 | 0.394 | 48.6 | 49.7
18 | MAAAAGPGAALSPRPCDSDPATPGAQSPKDDNEDNSNDGTQPSKRRRMGSGDSSRSCETSSQDLGFSYYPAENLIEYKWPPDETGEYYMLQEQVSEYLGVTSFKRKYPDLERRDLSHKEKLYLRELNVITETQCTLGLTALRSDEVIDLMIKEYPAKHAEYSVILQEKERQRITDHYKEYSQMQQQNTQKVEASKVPEYIKKAAKKAAEFNSNLNRERMEERRAYFDLQTHVIQVPQGKYKVLPTERTKVSSYPVALIPGQFQEYYKRYSPDELRYLPLNTALYEPPLDPELPALDSDGDSDDGEDGRGDEKRKNKGTSDSSSGNVSEGESPPDSQEDSFQGRQKSKDKAATPRKDGPKRSVLSKSVPGYKPKVIPNAICGICLKGKESNKKGKAESLIHCSQCENSGHPSCLDMTMELVSMIKTYPWQCMECKTCIICGQPHHEEEMMFCDMCDRGYHTFCVGLGAIPSGRWICDCCQRAPPTPRKVGRRGKNSKEG [PHF10] | 1.13 | 2.91 | 0.132 | 0.128 | 49.5 | 49.4
19 | MAAAAKPNNLSLVVHGPGDLRLENYPIPEPGPNEVLLRMHSVGICGSDVHYWEYGRIGNFIVKKPMVLGHEASGTVEKVGSSVKHLKPGDRVAIEPGAPRENDEFCKMGRYNLSPSIFFCATPPDDGNLCRFYKHNAAFCYKLPDNVTFEEGALIEPLSVGIHACRRGGVTLGHKVLVCGAGPIGMVTLLVAKAMGAAQVVVTDLSATRLSKAKEIGADLVLQISKESPQEIARKVEGQLGCKPEVTIECTGAEASIQAGIYATRSGGNLVLVGLGSEMTTVPLLHAAIREVDIKGVFRYCNTWPVAISMLASKSVNVKPLVTHRFPLEKALEAFETFKKGLGLKIMLKCDPSDQNP [SORD] | -2.25 | -1.12 | -0.109 | 0.184 | 58.1 | 57
20 | MAAAALGSSSGSASPAVAELCQNTPETFLEASKLLLTYADNILRNPNDEKYRSIRIGNTAFSTRLLPVRGAVECLFEMGFEEGETHLIFPKKASVEQLQKIRDLIAIERSSRLDGSNKSHKVKSSQQPAASTQLPTTPSSNPSGLNQHTRNRQGQSSDPPSASTVAADSAILEVLQSNIQHVLVYENPALQEKALACIPVQELKRKSQEKLSRARKLDKGINISDEDFLLLELLHWFKEEFFHWVNNVLCSKCGGQTRSRDRSLLPSDDELKWGAKEVEDHYCDACQFSNRFPRYNNPEKLLETRCGRCGEWANCFTLCCRAVGFEARYVWDYTDHVWTEVYSPSQQRWLHCDACEDVCDKPLLYEIGWGKKLSYVIAFSKDEVVDVTWRYSCKHEEVIARRTKVKEALLRDTINGLNKQRQLFLSENRRKELLQRIIVELVEFISPKTPKPGELGGRISGSVAWRVARGEMGLQRKETLFIPCENEKISKQLHLCYNIVKDRYVRVSNNNQTISGWENGVWKMESIFRKVETDWHMVYLARKEGSSFAYISWKFECGSVGLKVDSISIRTSSQTFQTGTVEWKLRSDTAQVELTGDNSLHSYADFSGATEVILEAELSRGDGDVAWQHTQLFRQSLNDHEENCLEIIIKFSDL [NGLY1] | -0.157 | -0.401 | -0.0564 | -0.124 | 57.5 | 50.3
21 | MAAAAMAAAAGGGAGAARSLSRFRGCLAGALLGDCVGSFYEAHDTVDLTSVLRHVQSLEPDPGTPGSERTEALYYTDDTAMARALVQSLLAKEAFDEVDMAHRFAQEYKKDPDRGYGAGVVTVFKKLLNPKCRDVFEPARAQFNGKGSYGNGGAMRVAGISLAYSSVQDVQKFARLSAQLTHASSLGYNGAILQALAVHLALQGESSSEHFLKQLLGHMEDLEGDAQSVLDARELGMEERPYSSRLKKIGELLDQASVTREEVVSELGNGIAAFESVPTAIYCFLRCMEPDPEIPSAFNSLQRTLIYSISLGGDTDTIATMAGAIAGAYYGMDQVPESWQQSCEGYEETDILAQSLHRVFQKS [ADPRHL2] | 0.365 | -0.404 | -0.105 | 0.408 | 53.3 | 52.5
